Experimental findings from patent US20230279047A1 are described below.

Assay [1] has as its target human polyclonal IgG (Gammanorm) (human). Description: DBC column, 6 min residence; ligand 7.0 mg/ml on agarose beads.
The target is the same in assay [2]. In words: DBC column, 6 min residence; ligand […] on agarose beads.
In a further assay the target is IgG1 monoclonal antibody. In words: SPR (Biacore), ligand amine-coupled on CM5 chip, IgG1 mAb as probe. (In SPR one partner is held on a chip, and binding of the other changes the refractive index at the surface.)
Assay [3] addresses human polyclonal IgG (Gammanorm) (human). Description: DBC column, 6 min residence; ligand 7.2 mg/ml on agarose beads.
Assay [4] shares this target. Description: DBC column, 6 min residence; ligand […] on agarose beads. This is another data set of the same source.
The target is the same in assay [5]. Description: DBC column, 6 min residence; ligand 9.7 mg/ml on agarose beads.
Assay [6] has the same target. The description is as above. The source holds these as a separate data set.
For assay [7] the target is unchanged. Description: DBC column, 6 min residence; ligand 10.8 mg/ml on agarose beads.

Consider “Zvar(Q9A,N11E,N28A,N43A)4 (designed binder)”, for which the Initial IgG capacity Qb10 in assay [1] came to 49.1 mg/mL; in assay [2], 50 mg/mL.
For “Zvar(Q9A,N11E,Q40V,A42K,N43A,L44I)1 (designed binder)”, in the assay with IgG1 monoclonal antibody, the dissociation constant (Kd) (commonly the concentration at which binding is half-saturated) turned out to be 1.07 nM; the koff (commonly a measure of how fast the partners let go of each other) was 0.000437 s⁻¹; the kon (in general, a measure of how fast the partners come together) was determined as 410000 M⁻¹ s⁻¹.
Consider “Zvar(Q9A,N11E,Q40V,A42K,N43A,L44I)4 (designed binder)”, for which the Initial IgG capacity Qb10 was 49 mg/mL in assay [3], 60.3 mg/mL in assay [4] and 56.3 mg/mL in assay [2].
Regarding “Zvar(N11K,H18K,S33K,D37E,A42R,N43A,L44I,K50R,L51Y)4 (designed binder)”, the Initial IgG capacity Qb10 came to 56.3 mg/mL in assay [5] and 62.1 mg/mL in assay [6].
In assay [7], “Zvar(Q9A,N11K,H18K,D37E,A42R)4 (designed binder)” showed an Initial IgG capacity Qb10 of 56.9 mg/mL.
